The results in this text go back to IntAct's records for PubMed 16014621.

B1: Septum site-determining protein minD homolog, chloroplastic (Arabidopsis thaliana (Mouse-ear cress)), Q9MBA2 (parent)
chain: MASLRLFSTNHQSLLLPSSLSQKTLISSPRFVNNPSRRSPIRSVLQFNRKPELAGETPRIVVITSGKGGVGKTTTTANVGLSLARYGFSVVAIDADLGLRNLDLLLGLENRVNYTCVEVINGDCRLDQALVRDKRWSNFELLCISKPRSKLPMGFGGKALEWLVDALKTRPEGSPDFIIIDCPAGIDAGFITAITPANEAVLVTTPDITALRDADRVTGLLECDGIRDIKMIVNRVRTDMIKGEDMMSVLDVQEMLGLSLLGVIPEDSEVIRSTNRGFPLVLNKPPTLAGLAFEQAAWRLVEQDSMKAVMVEEEPKKRGFFSFFGG
partner: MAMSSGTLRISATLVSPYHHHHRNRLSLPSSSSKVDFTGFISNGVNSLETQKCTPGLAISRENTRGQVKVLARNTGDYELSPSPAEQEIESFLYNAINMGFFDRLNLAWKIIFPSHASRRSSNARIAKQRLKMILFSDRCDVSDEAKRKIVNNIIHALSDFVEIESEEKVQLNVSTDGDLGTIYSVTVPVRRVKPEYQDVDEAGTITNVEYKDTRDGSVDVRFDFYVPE

The variants in this assay derive from B1. As to conditions: with mine1_arath MINE1, Q9C4Z7.
Take MASLRLFSTNHQSLLLPSSLSQKTLISSPRFVNNPSRRSPIRSVLQFNRKPELAGETPRIVVITSGKGGVGATTTTANVGLSLARYGFSVVAIDADLGLRNLDLLLGLENRVNYTCVEVINGDCRLDQALVRDKRWSNFELLCISKPRSKLPMGFGGKALEWLVDALKTRPEGSPDFIIIDCPAGIDAGFITAITPANEAVLVTTPDITALRDADRVTGLLECDGIRDIKMIVNRVRTDMIKGEDMMSVLDVQEMLGLSLLGVIPEDSEVIRSTNRGFPLVLNKPPTLAGLAFEQAAWRLVEQDSMKAVMVEEEPKKRGFFSFFGG [K72A]: the “effect of a mutation on the interaction” value is listed as “decreasing interaction”.
